The values below come from patent US12239647B2, “ALS treatment using induced regulatory T (iTREG) cells” (RAPA THERAPEUTICS, LLC, priority 2018, dated 2025).

The test system of one experiment is CD4+ and CD8+ T cells. The experiment can be described thus: Flow cytometry of GATA3 and FOXP3 in Th2/TREG cell product after 6-day culture. Format: cell-based, human. The note with it: control manufacturing culture that did not include IL-4. An excerpt: After the 6-day culture, the T cells were harvested, stained for surface markers (CD4 and CD8) and intracellular molecule expression (GATA3 and FOXP3) and evaluated by flow cytometry. Results in FIGS. 26A-B show the FOXP3 and GATA3 expression for CD4+ and CD8+ T cells at the start of culture and after culture (Th2/TREG) as measured by flow cytometry. The percentages provided indicate the amount of cells considered positive for CD4+ or CD8+ and the intracellular marker (shown in boxes).
In general terms: Flow cytometry measures light scatter and fluorescence of single cells or particles in a stream.

Experiment [1] relates to human CD4+ and CD8+ T cells. Kind of experiment: Cytokine secretion (Luminex) after 10-day re-differentiation in polarization conditions. Format: cell-based. The note with it: lack of IL-4 inclusion in the T cell re-differentiation process. The source says: FIGS. 16A-16C illustrate that the culture of de-differentiated T cells in hybrid Th2/TReg polarization condition results in the generation of T cells with a primitive Th2 cell cytokine phenotype: as indicated by high levels of IL-2 and IL-4 secretion and a low level of IL-5 secretion. Human CD4+ and CD8^+ T cells were subjected to a 3-day de-differentiation procedure and subsequent culture in media containing variable polarization culture conditions and variable presence of pemetrexed, as described in FIG. 13. Out of the total of n=24 culture conditions, only the cultures with favorable cell yields were further evaluated; all cultures shown that contained pemetrexed (“+”) were at the concentration of 10 nM. The TREG conditions above all contained IL-2, TGF-β, and IL-4 (“TReg”) unless indicated (“TReg, No IL4”). […] All results shown are expressed as cytokine level in pg per ml per 1×10^6 cells/ml/24 hr.
FIGS. 17A-17C illustrate that the culture of de-differentiated T cells in hybrid Th2/TReg polarization condition results in the generation of T cells with a primitive Th2 cell cytokine phenotype: as indicated by low levels of IL-10, IL-13, and IL-17 secretion. […] Out of the total of n=24 culture conditions, only the cultures with favorable cell yields were further evaluated; all cultures shown that contained pemetrexed (“+”) were at the concentration of 10 nM. […] All results shown are expressed as cytokine level in pg per ml per 1×10^6 cells/ml/24 hr.
FIGS. 18A-18C illustrates that the culture of de-differentiated T cells in hybrid Th2/TREG polarization condition results in the generation of T cells with a primitive Th2 cell cytokine phenotype: as indicated by low levels of IFN-gamma, TNF-alpha, and GM-CSF secretion. […] Out of the total of n=24 culture conditions, only the cultures with favorable cell yields were further evaluated; all cultures shown that contained pemetrexed (“+”) were at the concentration of 10 nM. […] All results shown are expressed as cytokine level in pg per ml per 1×10^6 cells/ml/24 hr.

B1: IL-4: Th2 polarizing cytokine added to re-differentiation culture (protein, UniProt P05112 25-153, looked up)
Interleukin-4: HKCDITLQEIIKTLNSLTEQKTLCTELTVTDIFAASKNTTEKETFCRAATVLRQFYSHHEKDTRCLGATAQQFHRHKQLIRFLKRLDRNLWGLAGLNSCPVKEANQSTLENFLERLKTIMREKYSKCSS
As to B1, the “frequency of GATA3-positive T cells” value in the experiment with CD4+ and CD8+ T cells was “greatly reduced frequency of GATA3-positive T cells”. In experiment [1], the GM-CSF secretion result is recorded as “higher levels”, the IFN-γ secretion entry was “higher levels” and the TNF-α secretion entry is on record as “higher levels”.
